Marks after values point to notes of the source that are not given here.
How the values were obtained:
[1] = In vivo PK in transgenic humanized FcRn mice (Tg32); details: 0.3 mg/kg single IV, plasma
Method: In vivo PK studies were conducted in transgenic humanized FcRn mice (Tg32). For these studies, no GLP compliance was claimed.

[2] = molecular target: T1, FGFR1c and co-receptor beta-Klotho (KLB) (Homo sapiens, UniProt P11362+Q86Z14); experiment: Luciferase reporter gene assay (iLite FGF21 Assay Ready Cells), FGF21-like signaling; type: cell-based
T1 construct: host or cells: iLite FGF21 Assay Ready Cells (HEK293)
T1 sequence (Q86Z14 53-1044 limits assumed): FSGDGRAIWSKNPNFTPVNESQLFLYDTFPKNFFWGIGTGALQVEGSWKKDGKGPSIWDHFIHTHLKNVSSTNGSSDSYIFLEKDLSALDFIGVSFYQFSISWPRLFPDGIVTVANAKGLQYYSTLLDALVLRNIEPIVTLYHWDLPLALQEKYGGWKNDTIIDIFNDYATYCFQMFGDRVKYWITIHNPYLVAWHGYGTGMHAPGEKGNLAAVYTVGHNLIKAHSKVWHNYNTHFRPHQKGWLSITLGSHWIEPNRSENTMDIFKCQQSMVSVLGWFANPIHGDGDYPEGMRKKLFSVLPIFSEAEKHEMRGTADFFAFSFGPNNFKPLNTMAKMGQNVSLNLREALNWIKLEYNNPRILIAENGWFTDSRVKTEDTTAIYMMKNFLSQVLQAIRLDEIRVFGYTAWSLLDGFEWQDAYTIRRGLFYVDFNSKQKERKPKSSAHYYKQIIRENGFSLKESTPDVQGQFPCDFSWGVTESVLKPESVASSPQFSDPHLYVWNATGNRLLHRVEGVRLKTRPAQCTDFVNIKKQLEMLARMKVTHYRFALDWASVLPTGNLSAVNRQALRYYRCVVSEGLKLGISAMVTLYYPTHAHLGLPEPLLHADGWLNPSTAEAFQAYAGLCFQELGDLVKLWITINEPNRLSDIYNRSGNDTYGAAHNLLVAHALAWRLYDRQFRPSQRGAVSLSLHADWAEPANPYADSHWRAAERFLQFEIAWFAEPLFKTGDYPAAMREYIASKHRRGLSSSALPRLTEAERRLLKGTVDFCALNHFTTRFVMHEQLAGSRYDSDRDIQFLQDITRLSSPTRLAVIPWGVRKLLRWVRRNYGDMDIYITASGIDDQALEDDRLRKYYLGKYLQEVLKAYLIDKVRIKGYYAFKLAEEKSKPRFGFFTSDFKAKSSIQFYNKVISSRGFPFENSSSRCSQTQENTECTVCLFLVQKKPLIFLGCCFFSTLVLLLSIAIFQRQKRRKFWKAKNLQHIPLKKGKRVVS
T1 sequence (P11362 22-820 isoform P11362-2 limits assumed): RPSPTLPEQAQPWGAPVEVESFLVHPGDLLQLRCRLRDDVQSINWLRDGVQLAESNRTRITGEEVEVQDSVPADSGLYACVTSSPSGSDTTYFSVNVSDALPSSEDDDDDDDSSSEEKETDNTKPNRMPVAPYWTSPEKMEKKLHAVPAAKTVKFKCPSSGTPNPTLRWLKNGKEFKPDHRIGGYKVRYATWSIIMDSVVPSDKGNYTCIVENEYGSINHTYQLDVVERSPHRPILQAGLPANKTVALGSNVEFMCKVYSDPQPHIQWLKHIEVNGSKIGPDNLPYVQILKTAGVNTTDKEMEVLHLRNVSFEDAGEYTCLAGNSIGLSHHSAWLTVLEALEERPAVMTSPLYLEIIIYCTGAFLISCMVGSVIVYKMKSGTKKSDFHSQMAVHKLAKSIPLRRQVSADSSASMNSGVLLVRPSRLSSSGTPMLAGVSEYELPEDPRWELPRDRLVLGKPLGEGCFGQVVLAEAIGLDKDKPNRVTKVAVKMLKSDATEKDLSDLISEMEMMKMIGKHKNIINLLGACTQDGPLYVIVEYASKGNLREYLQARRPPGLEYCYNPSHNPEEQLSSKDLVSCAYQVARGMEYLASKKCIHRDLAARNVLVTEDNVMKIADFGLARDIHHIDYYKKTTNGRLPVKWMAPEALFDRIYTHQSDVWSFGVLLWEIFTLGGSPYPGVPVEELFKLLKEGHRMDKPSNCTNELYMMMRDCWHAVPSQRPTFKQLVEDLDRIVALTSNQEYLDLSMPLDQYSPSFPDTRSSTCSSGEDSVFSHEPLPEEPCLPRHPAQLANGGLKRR

[3] = NHP study of Ab0335 (SAR18) versus 16H7 (SAR16) in high-fat diet-induced obese cynomolgus monkeys; type: in vivo, Cynomolgus monkey (Macaca fascicularis); details: for body weight compared to baseline values (value prior start of treatment) / food intake: obese cynomolgus monkeys; for body weight (in words): SAR16 1 mg/kg, SAR18 low- and high-dose; for food intake: especially lunch (apple), lesser impact on dinner (HFD); for plasma triglyceride (TG) values: over the whole study period
Method: Both were tested as single administration in the most relevant animal model that reflects the intended human population. Monkeys are a desirable species to examine the potential effects of drug candidates because of the similarity of their absorption, distribution, metabolism, and excretion profile compared to that of humans. The cynomolgus monkey is selected as the test species of choice over other lower mammalian species for more meaningful and translatable results because it is closely related to humans, both phylogenetically and physiologically. Thus, the pharmacokinetic and pharmacodynamics of varying doses of the compounds were explored in the high-fat diet-induced obese and insulin resistance cynomolgus monkey model.
Cynomolgus monkey (Macaca fascicularis) was selected as the test species of choice for more meaningful results that were translatable to humans. More than 50 male monkeys were trained to identify 40 HFD induced obese monkeys for the study.
They all fulfilled the following metabolic criteria: • weight at least 8 kg, age at least 8 years, fasting insulin >55 μU/mL (in comparison lean monkeys of same age range: weight 5 to 8 kg, fasting glucose ˜70 mg/dL, and fasting insulin ˜[…]), HbA1c >4%, triglycerides >1.3 mmol/L, LDL >5 mmol/L.
The monkeys were individually housed in species- and size appropriate metabolic stainless-steel caging with ad libitum access to water and under controlled environmental conditions with room temperature of 18° C. to 29° C., relative humidity of 30% to 70%, and a minimum of 10 air changes per hour. A time-controlled lighting system provided a regular 12-hour light/12-hour dark diurnal cycle. Cages were cleaned at regular intervals. The monkeys had three meals per day with a daily energy intake of ˜680 kcal (˜2.85 MJ). All food was withdrawn at 5:00 PM so that monkeys were fasted overnight. Monkeys were provided with enrichment toys or devices at all times. […] Each batch of monkey chow was delivered with an accompanying certificate of analysis detailing nutritional composition and levels of specified contaminants (e.g., heavy metals, aflatoxin, and insecticides). Ad libitum access to water through the main system was suspended on days in which water intake was quantified.
There was a run-in period during which monkeys were injected subcutaneously with vehicle once weekly. Food intake (calculated as TEI) and water intake were measured daily along with once-weekly body weight evaluation and one-time baseline value determination for metabolic biomarkers, safety biomarkers, IV glucose tolerance test (IVGTT), and profile for glucose, insulin, and plasma lipids.
For the dosing period 40 trained monkeys (n=10 per group) were selected and stratified for their body weight, fat composition and triglycerides in a four-arm design. All treatments, including a vehicle treated control group were administered subcutaneously on days +1, +19 and +37 and monitored closely for 8 weeks followed by a 4-week observation wash-out period. The dosing period was designed as a four-arm study, and monkeys were treated with either vehicle, SAR16, or SAR18.
The SAR16-treated monkeys were dosed at 1 mg/kg on day +1, day +19, and day +37. The SAR18-treated monkeys were dosed in the low-dose arm at 1 mg/kg on day +1, day +19, and day +37. SAR18 was further dosed in the high-dose arm at 3 mg/kg on day +1, day +19, and day +37.
Other parameters were also measured during the study, including food intake, body fat, plasma ketone bodies, as well as, on blood glucose control (glucose profile, fed, fasting plasma glucose and during ivGTT). One group received the vehicle. The compounds were administered subcutaneously (SC) (12 weeks “evaluation phase” plus run-out) to obese male cynomolgus macaques (Macaca fascicularis).
The SAR16-treated monkeys were dosed 3 times on day +1, day +19, and day +37 at 1 mg/kg. […]

[4] = In vivo PK in cynomolgus monkeys, single intravenous dose; set-up: species or system Cynomolgus monkey (Macaca fascicularis); details: Macaca fascicularis, plasma
Method: Naive cynomolgus monkeys received a single intravenous dose of mAb according to the following table:
In all investigations, the animals were evaluated twice daily for post-dose mortality/moribundity and cage side clinical observations were carried out after each study blood collection time. Studies were Non-GLP, nevertheless, these studies have been conducted in a GLP compliant facility using practices detailed in Standard Operating Procedures consistent with the principles of GLP (Test facility: Sanofi and Charles River Laboratories). Plasma concentrations and pharmacokinetic parameters of the tested antibodies were investigated after single intravenous administration.

[5] = Hydrophobic interaction chromatography (HIC); type: physicochemical
Method: The analysis was run at a flow rate of 1 mL/min with detection at 280 nm. 5 μg of undiluted protein sample were applied onto the column. Gradient elution was from 15% B to 85% B in 7 min followed by 1 min to 100% B, then 1 min to 15% B and then 3 minutes equilibration at 15% B. Buffer A was composed of 1.5 mol/L ammonium sulfate, 25 mmol/L sodium phosphate pH 7.0. Buffer B was composed of 25 mmol/L sodium phosphate pH 7.0. Data evaluation was performed either using LabSolutions software v5.85 (Shimadzu) or Chromeleon 7 software (Thermo Fisher Scientific).

[6] = Nano differential scanning fluorimetry (nanoDSF), Tonset and Tm; type: physicochemical
Method: Onset temperatures (Tonset) and melting points (Tm) of protein denaturation were determined using nano differential scanning fluorimetry (nanoDSF). Samples were diluted in formulation buffer to a final concentration of 0.5 mg/mL and loaded into nanoDSF capillaries in duplicates (Nanotemper Technologies). All measurements were done using a Prometheus NT.plex nanoDSF device (Nanotemper Technologies). Heating rate was 1° C. per minute from 20° C. to 95° C. Data were recorded using PR.ThermControl Software v2.3.1 (Nanotemper Technologies) and analyzed using PR.Stability Analysis Software v1.0.3 (Nanotemper Technologies).

16H7: anti FGFR1c/KLB monoclonal antibody of WO 2011/071783, IgG2 backbone; HC SEQ ID NO: 1, LC SEQ ID NO: 2 [Ab 16H7]
t½ ([1]; noncompartmental analysis): 13 days
FGF21-like activity in Luciferase gene reporter assay (in words) ([2]; monovalent Fab versus bivalent antibody): shows FGF21-like activity
body weight compared to baseline values (value prior start of treatment) ([3]; 1 mg/kg SC on day +1, +19, +37): 86.5±1.6%
body weight (in words) [3]: Significant reductions in body weight
food intake [3]: Reduction of food intake
plasma triglyceride (TG) values [3]: quite robustly reduced
t½ ([4]; 0.1 mg/kg single IV): 6.04 days
t½ ([4]; 0.3 mg/kg single IV): 6.29 days
t½ ([4]; 1.0 mg/kg single IV): 11.2 days

Ab0335: IgG4 PE; 16H7 VL (N25S, D49S, D50A, D91E, N93E); 16H7 VH (M34V, I83T, D109E); HC SEQ ID NO: 39, LC SEQ ID NO: 46
t½ calculated with compartment model ([1]; compartment model): 300* h
Hydrophobic variance HIC Number of peaks [5]: 1
HIC Number of peaks ([5]; pH 5, 40° C., d 21): 1
HIC Number of peaks ([5]; pH 5, d 0): 1
HIC Number of peaks ([5]; pH 6, 40° C., d 21): 1
HIC Number of peaks ([5]; pH 6, d 0): 1
HIC Number of peaks ([5]; pH 8, 40° C., d 21): 1
HIC Number of peaks ([5]; pH 8, d 0): 1
cellular activity in the Luciferase gene reporter assay compared to 16H7 [2]: comparable cellular activity
Thermal stability DSF Tm [6]: 63 °C
Thermal stability DSF Tonset [6]: 52 °C
DSF Tm ([6]; pH 5, 40° C., d 21): 62 °C
DSF Tonset ([6]; pH 5, 40° C., d 21): 45 °C
DSF Tm ([6]; pH 5, d 0): 61 °C
DSF Tonset ([6]; pH 5, d 0): 51 °C
DSF Tm ([6]; pH 6, 40° C., d 21): 62 °C
DSF Tonset ([6]; pH 6, 40° C., d 21): 50 °C
DSF Tm ([6]; pH 6, d 0): 63 °C
DSF Tonset ([6]; pH 6, d 0): 52 °C
DSF Tm ([6]; pH 8, 40° C., d 21): 68 °C
DSF Tonset ([6]; pH 8, 40° C., d 21): 57 °C
DSF Tm ([6]; pH 8, d 0): 68 °C
DSF Tonset ([6]; pH 8, d 0): 57 °C
body weight compared to baseline values (value prior start of treatment) ([3]; 1 mg/kg SC on day +1, +19, +37): 94.5±1.8%
body weight compared to baseline values (value prior start of treatment) ([3]; 3 mg/kg SC (high dose) on day +1, +19, +37): 89.9±1.7%
body weight (in words) [3]: Significant reductions in body weight
food intake [3]: Reduction of food intake
plasma triglyceride (TG) values [3]: quite robustly reduced
t½ ([4]; 3.0 mg/kg single IV): 12.8 days

Source: patent publication US20250115669A1, “FGFR1/KLB Targeting Agonistic Antigen-Binding Proteins and Conjugates Thereof with GLP-1R Agonistic Peptides” (SANOFI, priority 2020, published 2025)
